Assay results as given in patent US11160876B2, “Methods and compositions for targeting t-cell cancers” (Mayo Foundation for Medical Education and Research, priority 2016, dated 2021).

Target: Abraxane (Homo sapiens, UniProt P02768)
Assay: Bio-layer interferometry (BLItz) binding affinity of OKT3 and Abraxane
Procedure: To understand the characteristics of the nanoparticles formed when binding OKT3 to Abraxane, the binding affinity of the complex was determined by a Bio-layer interferometry (BLItz) assay, which is an optical technology that uses interference of white light reflection to determine binding affinities of 2 proteins
In a BLItz assay, if the 2 proteins bind, the reflected light changes wavelength in a manner that correlates to the binding affinity of the 2 proteins. Here biotinylated OKT3 at 100 ug/ml was immobilized on a streptavidin-containing probe and exposed to Abraxane at 2 concentrations-500 ug/ml (Run 2) and 1000 ug/ml (Run 3)
In the case of the anti-human CD3 antibody (OKT3) and Abraxane, biotinylated OKT3 at 100 ug/ml was immobilized on a streptavidin-containing probe. The OKT3 bearing probe was then immersed in Abraxane at 2 concentrations, 500 ug/ml and 1000 ug/ml (Run 2 and Run 3). […] The association and dissociation constants on the proteins were calculated by the BLItz software.

muromonab-CD3 [OKT3] was tested, and the “binding of Abraxane to immobilized OKT3” value (OKT3 bearing probe immersed in Abraxane at 500 ug/ml and 1000 ug/ml (Run 2 and Run 3)) was “concentration dependent manner” and the Kd (biotinylated OKT3 at 100 ug/ml immobilized on streptavidin-containing probe, Abraxane at 500 ug/ml and 1000 ug/ml, calculated by BLItz software, read-out: dissociation constant (Kd) of OKT3 and Abraxane) was 2.25 nM.
